Activity (on-target reads) and activity (% C-to-T editing) data for three substances are collected here from patent US20220307001.

Data set [1] concerns xCas9 3.7 nuclease (evolved SpCas9) (Streptococcus pyogenes). Kind of data set: cell_activity. The conditions noted are these: GUIDE-seq HEK293T.
The subject of data set [2] is xCas9(3.7)-BE3 (Streptococcus pyogenes). Kind of data set: cell_activity. The conditions noted are these: HEK293T; PAM GAA; SD 0.75; >50-fold over SpCas9-BE3.

As for “EMX1 site sgRNA spacer ; EMX1 site target, GGG PAM”, in data set [1] (PAM GGG, zero off-target reads), the activity (on-target reads) came to 6870.

For the substance “FANCF CGT site sgRNA spacer ; FANCF CGT PAM target”, in data set [1] (PAM CGT, no off-target reads), the activity (on-target reads) worked out at 3060.

Take “FANCF GAA site sgRNA spacer ; FANCF GAA PAM target”: the activity (% C-to-T editing) in data set [2] was determined as 10. This substance showed an activity (on-target reads) in data set [1] (PAM GAA, no off-target reads) of 3630.
